Test results as given in US20240092892A1 (BIO THERA SOLUTIONS, published 2024).

Columns and labels:
[1] = target: human CLDN18.2 (human); assay: cell-based or functional assay
[2] = target: T1, human CLDN18.1 (human, UniProt P56856 1-261); assay: flow cytometry on CHO-CLDN18.1 cells
T1 construct: also called CHO-CLDN18.1 cells
Description: Flow cytometry was used to detect the binding capacity of anti-CLDN18.2 antibodies to cells expressing CLDN18.2, and the specificity of not binding to CLDN18.1 of the antibody was further detected. The experimental procedure overview was as follows: CLDN18.2 positive cells (KATOIII or CHO-CLDN18.2) and negative cells (CHO-CLDN18.1) were collected, washed once with PBS, resuspended in PBS, and plated on a 96-well V-bottom plate (Cat. No. 3897, Costar) at 0.1 million cells/50 μL/well. The antibody was pre-diluted to 333.2 nM with PBS, then diluted 2-fold with 9 gradients, added at 50 μL/well to the cells in the 96-well V-bottom plate described above, and mixed well (final antibody concentrations: 166.6, 83.3, 41.6, 20.8, 10.4, 5.2, 2.6, 1.3, 0.65, and 0.325 nM). The mixture was incubated at 4° C. for 1 h and washed twice with PBS. Then 100 μL of 1:500 diluted goat anti-human IgG-Fc PE fluorescent secondary antibody (Cat. No. 12-4998-82, eBioscience) was added. The mixture was incubated at 4° C. for 1 h, washed twice with PBS, and analyzed with a CytoFLEX flow cytometer (model: AOO-1-1102, Beckman). [0192]

T1 sequence (P56856 whole entry): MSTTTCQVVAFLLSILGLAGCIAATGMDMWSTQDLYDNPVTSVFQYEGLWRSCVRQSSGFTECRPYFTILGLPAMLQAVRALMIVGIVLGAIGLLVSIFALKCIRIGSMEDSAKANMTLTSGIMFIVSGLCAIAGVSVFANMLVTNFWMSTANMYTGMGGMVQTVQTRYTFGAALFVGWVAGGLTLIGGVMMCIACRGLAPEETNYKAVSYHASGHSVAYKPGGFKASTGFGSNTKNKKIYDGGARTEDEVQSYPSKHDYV

Row | ADCC Reporter Bioassay (Jurkat-NFAT-luc-FcγRIIIa effector cells, luciferase) EC50 [1] [pM] | binding result [2] | Binder | CDC cell killing rate (CCK-8, 5% human serum complement) IC50 [1] [pM]
1 | 795 | – | IMAB362 (antibody, V domains shown) VH: QVQLQQPGAELVRPGASVKLSCKASGYTFTSYWINWVKQRPGQGLEWIGNIYPSDSYTNYNQKFKDKATLTVDKSSSTAYMQLSSPTSEDSAVYYCTRSWRGNSFDYWGQGTTLTVSS VL: DIVMTQSPSSLTVTAGEKVTMSCKSSQSLLNSGNQKNYLTWYQQKPGQPPKLLIYWASTRESGVPDRFTGSGSGTDFTLTISSVQAEDLAVYYCQNDYSYPFTFGSGTKLEIKR | 5870
2 | – | no binding | H239H-2a-K-6a (antibody, human IgG1, kappa, V domains shown, Humanized antibody derived from CH239H-2-K-6, human IgG1/kappa constant regions; also called H239H-2a-K-6α) VH: EVQLLESGGGLVQPGGSLRLSCAASGFTFSDYGMHWVRQAPGKGLEWVAYISRGRSTTYSTDTVKGRFTISRDSSKNTLYLQMNSLRAEDTAVYYCARGSYYGNAMDYWGQGTLVTVSS VL: DIVMTQSPDSLAVSLGERATINCKSSQSLLNSGNQRNYLTWYQQKPGQPPKLLIYWASTRESGVPDRFSGSGSGTDFTLTISSLQAEDVAVYYCQSAYSYPFTFGGGTKLEIKR | –
3 | 62.5 | no binding | H239H-2b-K-6a (antibody, human IgG1, kappa, V domains shown, Humanized antibody derived from CH239H-2-K-6, human IgG1/kappa constant regions; also called H239H-2b-K-6α) VH: EVQLLESGGGLVQPGGSLRLSCAASGFTFSDYGMHWVRQAPGKGLEWVAYISRGRSTTYSTDTVKGRFTISRDNSKNTLYLQMNSLRAEDTAVYYCARGSYYGNAMDYWGQGTLVTVSS VL: DIVMTQSPDSLAVSLGERATINCKSSQSLLNSGNQRNYLTWYQQKPGQPPKLLIYWASTRESGVPDRFSGSGSGTDFTLTISSLQAEDVAVYYCQSAYSYPFTFGGGTKLEIKR | 291
